According to US20180275124A1 (DEUTSCHES KREBSFORSCHUNGSZENTRUM STIFTUNG DES FFENTLICHEN …, published 2018):

How the values were obtained:
Assay in all cases: surface plasmon resonance, Dectin-1 immobilized
[1] = target: T1, recombinant murine annexin A5 (murine, UniProt P48036 1-319)
T1 construct: Recombinant protein; also called mAnxA5; AnxA5
T1 sequence (looked up): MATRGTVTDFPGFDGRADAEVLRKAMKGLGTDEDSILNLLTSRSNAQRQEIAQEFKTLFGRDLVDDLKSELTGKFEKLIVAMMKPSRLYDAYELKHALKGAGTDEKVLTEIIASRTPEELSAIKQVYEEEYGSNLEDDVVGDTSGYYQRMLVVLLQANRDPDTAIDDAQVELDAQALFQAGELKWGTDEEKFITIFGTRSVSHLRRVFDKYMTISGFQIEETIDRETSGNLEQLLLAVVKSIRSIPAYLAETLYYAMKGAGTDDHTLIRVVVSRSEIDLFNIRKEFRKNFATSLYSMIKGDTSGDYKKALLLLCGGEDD

[2] = target: T2, recombinant murine annexin A13 (murine, UniProt Q99JG3 1-317)
T2 construct: Recombinant protein; also called mAnxA13; AnxA13
T2 sequence (looked up): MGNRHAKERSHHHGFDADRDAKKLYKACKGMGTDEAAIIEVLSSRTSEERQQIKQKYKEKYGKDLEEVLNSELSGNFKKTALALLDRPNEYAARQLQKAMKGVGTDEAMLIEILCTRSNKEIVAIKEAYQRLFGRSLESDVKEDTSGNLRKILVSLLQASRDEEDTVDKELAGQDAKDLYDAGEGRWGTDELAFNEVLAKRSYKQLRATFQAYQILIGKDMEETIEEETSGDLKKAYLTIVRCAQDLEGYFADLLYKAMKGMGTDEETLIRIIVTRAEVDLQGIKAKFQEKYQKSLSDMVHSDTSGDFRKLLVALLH

[3] = target: T3, murine annexin A1 core domain (murine, UniProt P10107 41-346, limits assumed)
T3 construct: domain: core domain; also called mAnxA1 core; AnxA1 core domain
T3 sequence (looked up): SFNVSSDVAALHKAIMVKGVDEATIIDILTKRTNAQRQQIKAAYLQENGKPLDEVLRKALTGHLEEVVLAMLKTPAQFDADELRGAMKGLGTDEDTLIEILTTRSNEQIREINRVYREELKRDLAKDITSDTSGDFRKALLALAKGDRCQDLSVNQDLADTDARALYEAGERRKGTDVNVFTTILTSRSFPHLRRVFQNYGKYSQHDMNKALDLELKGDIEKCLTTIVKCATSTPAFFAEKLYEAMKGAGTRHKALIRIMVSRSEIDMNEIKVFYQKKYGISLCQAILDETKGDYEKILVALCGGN

[4] = target: T4, recombinant murine annexin A1 (murine, UniProt P10107 1-346)
T4 construct: Expressed in E. coli from pET41a with C-terminal FLAG tag, PreScission site and Protein A tag; the Protein A tag is cleaved off; also called mAnx1; mAnxA1; not shown: C-terminal FLAG tag and what remains of the PreScission site after cleavage
T4 sequence (looked up): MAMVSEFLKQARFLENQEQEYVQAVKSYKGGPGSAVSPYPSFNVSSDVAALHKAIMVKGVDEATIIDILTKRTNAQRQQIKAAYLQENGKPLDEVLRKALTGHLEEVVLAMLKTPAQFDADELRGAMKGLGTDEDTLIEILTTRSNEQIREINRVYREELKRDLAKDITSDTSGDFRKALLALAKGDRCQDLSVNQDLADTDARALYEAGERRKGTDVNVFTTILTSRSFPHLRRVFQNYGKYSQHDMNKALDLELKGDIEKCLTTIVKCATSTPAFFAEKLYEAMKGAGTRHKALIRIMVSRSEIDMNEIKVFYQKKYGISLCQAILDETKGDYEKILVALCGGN

Measured: Kd

B1: Dectin-1 (receptor)
chain: GHNSGRNPEEKDNFLSRNKENHKPTESSLDEKVAPSKASQTTGGFSQPCLPNWIMHGKSCYLFSFSGNSWYGSKRHCSQLGAHLLKIDNSKEFEFIESQTSSHRINAFWIGLSRNQSEGPWFWEDGSAFFPNSFQVRNTAPQESLLHNCVWIHGSEVYNQICNTSSYSICEKEL
~100 nM: all assays above
